Key:
[1] = molecular target: human IL-23R-mouse Fc fusion protein (human; mouse) (UniProt Q5VWK5); test: antigen ELISA, human IL-23R-Fc immobilized, HRP anti-human IgG, chemiluminescence
[2] = molecular target: monkey IL-23R-mouse Fc fusion protein (monkey; mouse); test: antigen ELISA, monkey IL-23R-Fc immobilized, HRP anti-human IgG, chemiluminescence
human IL-23R (human) = human IL-23R (human) (UniProt Q5VWK5); test: cell-based or functional assay
Chain of human IL-23R (human) (Q5VWK5 24-629 L310P limits assumed): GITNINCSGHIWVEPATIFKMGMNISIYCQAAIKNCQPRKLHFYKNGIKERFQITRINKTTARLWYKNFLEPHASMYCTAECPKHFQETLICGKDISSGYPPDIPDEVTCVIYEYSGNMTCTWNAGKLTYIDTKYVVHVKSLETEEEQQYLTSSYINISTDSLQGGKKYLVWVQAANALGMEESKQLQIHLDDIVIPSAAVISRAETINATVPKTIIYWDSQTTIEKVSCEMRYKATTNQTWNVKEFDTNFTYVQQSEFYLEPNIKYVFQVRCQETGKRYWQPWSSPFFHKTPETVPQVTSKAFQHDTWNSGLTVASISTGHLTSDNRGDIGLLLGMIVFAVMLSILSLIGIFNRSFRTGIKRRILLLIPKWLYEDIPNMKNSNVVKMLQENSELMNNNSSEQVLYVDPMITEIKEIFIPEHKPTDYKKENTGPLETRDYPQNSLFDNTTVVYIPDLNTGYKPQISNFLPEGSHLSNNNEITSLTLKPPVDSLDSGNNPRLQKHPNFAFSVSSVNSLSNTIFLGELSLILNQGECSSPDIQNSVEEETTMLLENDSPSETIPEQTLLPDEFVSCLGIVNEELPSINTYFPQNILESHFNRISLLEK

Chain of human IL-23R-mouse Fc fusion protein (human; mouse) (Q5VWK5 24-353 L310P): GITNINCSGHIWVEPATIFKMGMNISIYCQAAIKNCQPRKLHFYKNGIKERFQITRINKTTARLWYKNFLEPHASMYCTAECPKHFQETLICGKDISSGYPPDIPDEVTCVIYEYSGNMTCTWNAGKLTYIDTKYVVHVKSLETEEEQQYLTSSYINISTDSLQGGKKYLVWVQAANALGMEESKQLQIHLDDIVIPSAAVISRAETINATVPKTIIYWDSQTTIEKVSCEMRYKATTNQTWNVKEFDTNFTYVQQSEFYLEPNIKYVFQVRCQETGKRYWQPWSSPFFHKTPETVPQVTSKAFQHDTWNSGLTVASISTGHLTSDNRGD

B1: hum20D7 (antibody, from another filing, V domains shown)
VH: QVQLVQSGAEVKKPGASVKVSCKASGYTFTNYAMNWVRQAPGQGLEWMGWINTYTGEPTYSDDFKGRVTFTLDTSTSTAYMELRSLRSDDTAVYYCARGGGYDEDYFDYWGQGTLVTVSS
VL: DIVMTQSPLSLPVTPGEPASISCKSSQSLFNTINQKTYLAWYLQKPGQSPQLLIYFASTRESGVPDRFSGSGSGTDFTLKISRVEAEDVGVYYCQQHYDTPWTFGQGTKVEIKR
EC50 [1]: 0.0485 µg/mL
EC50 [2]: > 10 µg/mL
IC50, IL-23-stimulated STAT3 phosphorylation in CD4 lymphocytes of human whole blood (human IL-23R (human)): 0.01 µg/mL
IC50, inhibition of human IL-23-inducible Kit-225 cell proliferation (human IL-23R (human)): 0.055 µg/mL
